Assay results reported in patent US20240069021A1 (ASAHI KASEI, published 2024).

B1: Specific Antibody A (HI142D11.3) (antibody, V domains shown)
VH: EVQLQQSGAELVKPGASVKLSCTASGFNIKDTYIHWVKQRPEQGLEWIGRIDPANGNTKYDPKFQGKATITADTSSNTAYLQLSSLTSEDTAVYYCPRPYGYVGWYFDVWGAGTTVTVSS
VL: DIVMTQSHKFMSTSVGDRVSITCKASQDVRNAVAWYQQKPGQSPKLLISSASYRYSGVPDRFTGSGSGTDFTFTISSVQAEDLAVYYCQQHYDTPPTFGGGTKLEIK
B2: Specific Antibody D (EC50C1) (antibody, V domains shown)
VH: QVQLQQSGAELAKPGASVKMSCKASGYTFTSYWMNWVKQRPGQGLEWIGYINPNTGYTEYDQKFKDKATLTADKSSSTAYMQLSSLTSEDSAVYYCARYWAYFEYWGQGTTLTVSS
VL: DIKMTQSPSSMYASLGERVTITCKASQDINSYLSWFQQKPGKSPKTLIYRANRLVDGVPSRFSGSGSGQDYSLTISSLEYEDMGIYYCLQYDEFRTFGGGTKLEIK
B3: Generic Antibody A (PA51B2) (antibody, V domains shown)
VH: QVQLQQPGSVLVRPGASVKLSCKPSGYTFTGSWMHWTKQRPGQGLEWIGEIHPYSGNTNYNEKFRVKATLTVDTSSSTTYVDLSSLTSDDSAVYYCASGDFDAGFTYWGQGTLVTVSA
VL: DIVLTQSPASLAVSLGRRATISCKASQSVDYDGDSYMNWYQQKPGQPPKLLIYVASNLESGIPARFSGSGSGTDFTLNIHPVEEEDAATYYCQQTNEDPFTFGAGTKLELK
B4: Generic Antibody B (LP54A3) (antibody, V domains shown)
VH: EVQLQQSGAELVKPGASVRLSCSASGFNIKDTYMHWMRQRPEQGLEWIGRIDPANGNAKYDPKFQVKATITADTSSNTASLQFSSLTSEDTAVYFCASESLDDMYYFDYWGQGTTLTVSS
VL: DIVMTQSQKFMSTSVGDRVSVTCKASQNVGVNVAWYQQKPGQSPKALIYSASYRYSGVPDRFTGSGSGTDFTLTISNVQSEDLAEYFCQQYHSYLYTFGGGTKLEIK
B5: Generic Antibody C (CP141A190.1) (antibody, V domains shown)
VH: QVQLQQPGAELVKPGASVKLSCKTSGYNFTSNWIHWVKQRPGQGLEWIGEINPSNGRANYNEKFKNKATLTVDKSSSTAFMHLSSLTSEDSAVYFCSRGDFDEGFTYWGQGTLVTVSA
VL: QIVLTQSPAIMSASLGERVTMTCTASSNVNSDYLHWYQQKPGSSPRLWIYTTSNLASGVPTRFSGNGSGTSYSLTISSMEAEDAATYYCHQYHRSPRTFGGGTKLEIK

How the values were obtained:
[1] = molecular target: T1, ribosomal protein L7/L12 of Escherichia coli (EC), recombinant tagged fusion protein (Escherichia coli, UniProt P0A7K2 1-121); experiment: ELISA on coated recombinant L7/L12 (10 ng/mL), antibody 10 ug/mL, A450; + means absorbance >= 0.3
[2] = molecular target: T2, ribosomal protein L7/L12 of Bacillus subtilis (BS), recombinant tagged fusion protein (Bacillus subtilis, UniProt P02394 1-123); experiment: ELISA on coated recombinant L7/L12, antibody 10 ug/mL
T2 sequence: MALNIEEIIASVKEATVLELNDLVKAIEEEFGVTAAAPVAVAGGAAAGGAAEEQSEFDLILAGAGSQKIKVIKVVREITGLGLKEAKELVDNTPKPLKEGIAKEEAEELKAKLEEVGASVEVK

[3] = molecular target: ribosomal protein L7/L12 of Rahnella aquatilis (RA), recombinant tagged fusion protein (Rahnella aquatilis); experiment: as above
[4] = molecular target: T1, ribosomal protein L7/L12 of Escherichia …; experiment: as above
[5] = molecular target: ribosomal protein L7/L12 of Staphylococcus aureus (SA), recombinant tagged fusion protein (Staphylococcus aureus); experiment: as above
[6] = molecular target: ribosomal protein L7/L12 of Citrobacter freundii (CF), recombinant tagged fusion protein (Citrobacter freundii); experiment: as above
[7] = molecular target: ribosomal protein L7/L12 of Enterobacter cloacae (ECL), recombinant tagged fusion protein (Enterobacter cloacae); experiment: as above
[8] = molecular target: ribosomal protein L7/L12 of Serratia liquefaciens (SL), recombinant tagged fusion protein (Serratia liquefaciens); experiment: as above
[9] = molecular target: ribosomal protein L7/L12 of Listeria monocytogenes (LM), recombinant tagged fusion protein (Listeria monocytogenes); experiment: as above
[10] = molecular target: ribosomal protein L7/L12 of Klebsiella pneumoniae (KP), recombinant tagged fusion protein (Klebsiella pneumoniae); experiment: as above
[11] = molecular target: T3, ribosomal protein L7/L12 of Pseudomonas aeruginosa (PA), recombinant tagged fusion protein (Pseudomonas aeruginosa, UniProt Q9HWC8 1-122); experiment: as above
T3 sequence: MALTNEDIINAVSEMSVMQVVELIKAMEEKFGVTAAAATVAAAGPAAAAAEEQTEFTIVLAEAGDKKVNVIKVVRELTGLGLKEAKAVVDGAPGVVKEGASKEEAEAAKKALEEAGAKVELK

[12] = molecular target: ribosomal protein L7/L12 of Salmonella enterica (SE), recombinant tagged fusion protein (Salmonella enterica); experiment: as above

Row | Binder | binding result [1] | absorbance (450 nm) [2] | absorbance (450 nm) [3] | absorbance (450 nm) [4] | absorbance (450 nm) [5] | absorbance (450 nm) [6] | absorbance (450 nm) [7] | absorbance (450 nm) [8] | absorbance (450 nm) [9] | absorbance (450 nm) [10] | absorbance (450 nm) [11] | absorbance (450 nm) [12]
1 | B1 | binds | – | – | – | – | – | – | – | – | – | – | –
2 | B2 | binds | – | – | – | – | – | – | – | – | – | – | –
3 | B3 | – | ≥ 0.3 | ≥ 0.3 | ≥ 0.3 | ≥ 0.3 | ≥ 0.3 | ≥ 0.3 | ≥ 0.3 | ≥ 0.3 | ≥ 0.3 | ≥ 0.3 | ≥ 0.3
4 | B4 | – | ≥ 0.3 | – | ≥ 0.3 | – | – | – | – | – | – | ≥ 0.3 | –
5 | B5 | – | ≥ 0.3 | ≥ 0.3 | ≥ 0.3 | ≥ 0.3 | ≥ 0.3 | ≥ 0.3 | ≥ 0.3 | ≥ 0.3 | ≥ 0.3 | ≥ 0.3 | ≥ 0.3
